# In the DeepSol protein solubility set:
# Experiment: soluble on expression in E. coli; label from the status in PepcDB or PDB records
row,Sequence,soluble on expression in E. coli
1,MNDYTQQLQGKKDYLKTLFAGLDVPEWEVYESPDKHYRMRAEFRIWHEGGEMFYAMFEKGQKASGASMIRCDRFEAASEAVNRLMPELIAAAAQSPELKKRWYAVEFLSTLSGEMLVTMIYHKRLDAEWMQAAQALQQQLDISVIGRSRGQKIVLKQDYVTETLKVGNRDFRYRQIEGS,not soluble
2,MNEADMLFSVTVPGSTANLGPGFDSVGMALSRYLKLTVFESDKWSFEAETETVAGIPAGTDNLIYQVAKRTADLYGKEMPPVHVKVWSDIPLARGLGSSAAAIVAAIELADELCGLKLSEADKLHLASLEEGHPDNAGASLVGGLVIGLHEDDETQMIRVPNADIDVVVVIPFYEVLTRDARDVLPKEFPYADAVKASAVSNILIAAIMSKDWPLVGKIMKKDMFHQPYRAMLVPELSKVEHVAEMKGAYGTALSGAGPTILVMTEKGKGEELKEQLALHFPHCEVDALTVPKEGSIIERNPLYQVKSV,not soluble
3,MNEALDDIDRILVRELAADGRATLSELATRAGLSVSAVQSRVRRLESRGVVQGYSARINPEAVGHLLSAFVAITPLDPSQPDDAPARLEHIEEVESCYSVAGEESYVLLVRVASARALEDLLQRIRTTANVRTRSTIILNTFYSDRQHIP,soluble
4,MNEEQRKAGTINILAERDRKAEKDYSKYFEQVYQPPSLKEAKKRGKQEVQYNRDFHIDEKYKGMGKGRTFLIKTYGCQMNAHDTEVMAGILNALGYSATSDINEADVILINTCAIRENAENKVFSEIGNLKHLKKERPDCLIGVCGCMSQEESVVNKILKSYQNVDMVFGTHNIHHLPEILEEAYLSKAMVVEVWSKEGDIIENLPKVRDGHIKAWVNIMYGCDKFCTYCIVPFTRGKERSRRPEDIIDEVRELAREGYQEITLLGQNVNSYGKDIEGLDYELGDLLEDISKIDIPRVRFTTSHPWDFTDRMIEVIAKGGNIVPHIHLPVQSGNNQVLKIMGRKYTRESYLDLVSRIKEAIPNVALTTDIIVGYPNETEEQFEETLSLYDDVQFEHAYTYLYSQRDGTPAAKMKDNVPLEVKKERLQRLNKKVGIYSQQAMSQYEGKIVTVLCEGSSKKDENVLAGYTDKNKLVNFKGPRESIGKLVDVKIDEAKQYSLNGTFIQEHQRSMVTQLEHHHHHH,soluble
5,MNEIKTSCASTDRKWSTWESIDWNKCVIAVNKLQARIVKAQKAGKHGRVKSLQWVLTHSFYAKALAVKRVTSNSGSDTAGVDKVKWSTPNARFKAIGELKRRGYKPQPLKRVNIKKSNGKLRPLGIPTMKDRAMQALYLLALEPVSETTADSNSYGFRKERSTGDAREQCFCVLAKKASPEWIMEGDIQGCFDHISHEWLLNNIPMDKVMLRKWLKCGFVFNKELFPTEEGTPQGGIISPTLANMTLDGLQTMLAEKYHKKFVTRKTTTYYPKVHLVRYADDFIITGRNKEALEEIKPLVVDFLKERGLTLSEEKTKITHIDDGFDFLGYNIRKYKGVLLIKPSQKSLKKFMQKIRGIIDSNKGSKQESLIRLLNPVITGWVNYYKNCVASDTFRKADYLIFEKLWQWATRRHPKKGKYWIADRYFTRVKNRNWCFVANFKKGKTDDRIALKRLYDTKITRYVKVKGEANPFAPEWTEYFEKRKTYKMLQSLNGRKSLLYMWERQNHLCPVCGKPIDKEHPWGTSQQTVNGKKVNNLLHDSCRRKVIQTNKM,not soluble
6,MNEKFRTDLAHTFGIALEEQTDVLSFHDNDGHEWILECASQSEILFFYCYLLNSESIQINSILEMNSNRELLGMFFLSLKDDNILLNIAFPADKIDITEFANLMENGYLLKNEIIRSLSSRPTDFLP,not soluble
7,MNELTKQMQQIMHPRAVLVAYECETTGYSTPRSYLELRPVNEKGRMGAGIPVTYEFMNSLVESYTESMSGIPHGRIPGNMLLCDSRKGRERYIWYNPPQKRKMYFQDGLHITDGTFNVPGVIYVVERECMDIHAFKGAIPEERTELYLAPFFNVAGANVCLGSSSPKKPQDMDFLEFQEYWEKRFWMSEFSHLGGNRNPTRSNLVSVTEHARNNPFDYSELQQSGKKLKDILA,not soluble
8,MNEMWLHRADLAESAINERHASRLWMLPRTNLAVVAWPPTAKERLFYRWHYWWQAHYLDCLIDAASRRTTKARKQRIRDTIVGIRLRNLGRLTKNNYYDDKSWLALALDRERRLNKRAKREYLRVLEGNIAAGQDDIQGVLPWRVGEHFFNVPTNGPAAIMLARNGEVEQARKLVDWIFDNLINDKGLVMDGLRMSMRGPEIVDPVYPYCQGVVIGACIEIAEALPFEESVQYLAHARAVIHAVAKEMATPEGVINAATGDGDGGLFKGILMRYLADAAVRLPEDGPANIATKKIAKRLVMASAESVWEHRLEVDGLPVFATDWCDDARLPHNYGVGGSALSDIVRVVRIDERDLSVQLSGWMLLEAAARVSLVDLEHHHHHH,soluble
9,MNENGATPVAAARRHRPLPAERATSNSNETGLLINVIRSLTSSVSEDQREVEKSRLEKGYKESGALIDRLVKNHQQDVEKCLVSFRDVSSKISNCRERIHNVRNALHTVKSLLELRRDDLKKLWHENAQQKSVCEIMAKLEELREAPSKIENLISKEQYQQAADTVTESRELINGRLSRVEGLSHLSAEIERFTKILIDKINDTLVNMLVVEPFEKHLLHIVRTIPEHRINQNAYCHSLSTKSRSGSGSVSSFSDVSAKSRIVSSVEALSTLFRTVEERHWDVDRLMMLGKNMIDKMIVNTVQVMKIGANIDESNEGDTTHLKQLMQLLSAQFDSASQQHAEFGVLVEKQLGRKDVVTSFWRSAQSAIEVVVSEHLDINPLLEKQNVLGTASRKQLFRFENTACATPNANSSSHRTKAVICKPSAYNIKVIFPILSRLMETTEKNINDSPCELRRFMHSFVMEVFVERVKGELASRIEGALRGGEAVRVSTNKKILPSCEKVLNLCKEVQDLIVSIDLYADRFAALWLLVLTDYFKNMTDVYDRMTPKNPDPSLPNSEALPTRRQKISAAWTADDDISRLLMSLPNWHAASISPMTPAVESELDVGERNKRESEILIGNLGTQAQNSLSESDLITDMNDIKMFASLHESLRWFSDEIRELVHSLPANVKMMLDTCMVQVRLKDGQMIDNNSVPSAIEDCVRRLESIADSCLLLLHIEIRVHCFFHLAPLAKYRNTSSHNEVDPEVVALGKDLHQFHDNLKDVLSPAKLSYVFDGLGHLCASLFIHYSQFMPRLTEAAKKRVCRNVWGVQQRLSRITNRRESDLDRARAFFDLLLDNTPDGILAIVPEKRSQFTATELNYLLALSVRSDKTLASQPGALEKRQMVLNSILNQKK,not soluble
10,MNEPPVSVVLPTYDRPEILRNAVKSVQEQTYRHIELVVVDDHSPTPAADTLSPLSFDELTVEIIRHEENRGANEARNTGIRESTGEYIAFLDDDDDWAPSKIEKQVAVFREASPEVGVVYTGSEYVYDDYVRTVVFSLEGDVTEEMLRGRSLGEFTTLMVRRDVAMAAGLPDTDFPSWQDRDWLLRLSCHCKFKTVPEALTTRRRKTGEDSISDNFEEKRDISYPLFIEKHRDLAAEYGWRCERAFMAATTESLGQEALKNGYYADAKKYFLKALRYHPLDRSRLVYALVAYGGKYTYGAAHTLASLLHRVRTDTIHKLEHHHHHH,not soluble
11,MNEQWMSALPLDNVKDISPVSGGDVNEAFKVTTVEEDIFFLLVQRQRSEAFYAAEIAGLNEFENAGITAPRVIASGEINGDAYLLLSFLEEGSQGSQRELARLVARMHSQYQQDNKFGFRLPHEGADISFDNSWTETWKEIFINRRMDHLQDELLRVGLWKQEDKKMYERVRKVIVDELSNHTSKPSLLHGDLWGGNYMFLTNGQPALFDPAPLYGDREFDIGITTVFGGFTQEFYDEYNQQLPLAKGSQKRIEFYRLYLLMIHLLKFGGMYADSVQRSMKIILELEHHHHHH,soluble
12,MNERHVLVVFPHPDDEAFGVSGTIAEHAQNGTPVTYACLTLGEMGRNMGVPPFANRETLPHIRKQELEEACRILGIHDLRLLGYRDKTVEFEDEEELADQIAAIVAETNPSLVITFYPGYSVHPDHDACGAAVIRALKRWPKEERPTVHCVAFAKNCEQDLGQPDVVRDVSSVIDTKLAAIRAHRSQTEGLMQAASKRGDALAWLKTERFWTYRWDD,soluble
13,MNETIAFRPEGRASIKDVVVNYTLASLDELEQLHPALNLLAHPSIVRGSHDFFVRCYDAGVQHAQAGAAETVAVLPDSLPQERQRSGLLCAAAGRLDALRQPLTHNRLCDLASQFCAGMADVDSETRSGFYTVRSISLPVYRRLLRDQHSHGVCLQQALLHLLAWKSDSPWARQQAQRLLWQGGVLGDKGEFALMTLDDELRERQIGWPGLWSLLAVTGFLAKFPAGPIFAD,not soluble
